The assay addresses PKM2 (pyruvate kinase M2 isoform) (human (endogenous in U87)) (UniProt P14618). In words: cross-linking; cell lysates (100 ug) of U87, T98G or LN319 cells 10 h after release, glutaraldehyde 0.125%, 5 min, 37 C, Western blot for PKM2; vehicle or DASA-58 (40 uM, 3 h). On the technique in general: A western blot detects proteins with antibodies after separation by electrophoresis.

PKM2 (pyruvate kinase M2 isoform), P14618 1-531 (natural protein; other documents disagree on this pair), sequence (P14618 whole entry, canonical isoform): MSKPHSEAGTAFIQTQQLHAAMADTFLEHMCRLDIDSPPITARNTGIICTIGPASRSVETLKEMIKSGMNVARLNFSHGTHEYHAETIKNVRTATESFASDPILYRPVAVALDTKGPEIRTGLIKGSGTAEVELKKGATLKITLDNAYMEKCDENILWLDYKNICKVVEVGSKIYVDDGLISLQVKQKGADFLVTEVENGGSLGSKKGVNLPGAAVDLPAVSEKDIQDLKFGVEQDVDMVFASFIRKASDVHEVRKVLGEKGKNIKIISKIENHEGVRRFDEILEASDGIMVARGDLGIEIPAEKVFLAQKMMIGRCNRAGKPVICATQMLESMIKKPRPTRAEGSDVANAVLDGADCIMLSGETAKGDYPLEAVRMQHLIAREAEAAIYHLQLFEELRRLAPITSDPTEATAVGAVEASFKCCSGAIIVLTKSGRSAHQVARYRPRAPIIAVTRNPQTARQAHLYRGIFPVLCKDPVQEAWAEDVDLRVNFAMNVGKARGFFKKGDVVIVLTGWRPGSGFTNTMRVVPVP

Consider “PKM2 (pyruvate kinase M2 isoform), P14618 1-531 (natural protein; other documents disagree on this pair)”, for which the stoichiometry N (as a rule, a count of units in the complex or per binding partner) is 2.

For the origin of these results see PMC8981990.
